Reference: patent publication US20200317768A1 (published 2020)

T1: soluble mouse FcγRII, His-tagged (mouse, UniProt P08101 30-210, limits assumed)
T1 construct: Captured on the chip by an anti-His antibody
T1 sequence (looked up): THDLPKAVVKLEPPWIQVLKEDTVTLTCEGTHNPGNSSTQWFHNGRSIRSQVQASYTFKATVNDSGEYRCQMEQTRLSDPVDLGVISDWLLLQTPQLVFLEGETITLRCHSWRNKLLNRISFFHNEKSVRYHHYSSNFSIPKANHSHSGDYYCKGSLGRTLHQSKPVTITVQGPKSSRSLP

T2: human FcγRIIb constitutively expressed on MDCK cells (human, UniProt P31994 43-310)
T2 sequence (looked up): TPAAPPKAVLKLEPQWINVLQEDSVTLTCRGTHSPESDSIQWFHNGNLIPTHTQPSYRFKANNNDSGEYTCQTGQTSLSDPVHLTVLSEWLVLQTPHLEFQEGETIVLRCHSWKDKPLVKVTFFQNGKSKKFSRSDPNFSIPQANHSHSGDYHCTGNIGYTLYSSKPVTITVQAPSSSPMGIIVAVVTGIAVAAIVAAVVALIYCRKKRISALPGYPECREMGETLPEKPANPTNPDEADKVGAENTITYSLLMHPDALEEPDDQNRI


Legend:
[1] = biological target: T1, soluble mouse FcγRII, His-tagged; assay: SPR, mouse FcgRII-His captured, antigen-antibody complex injected, pH7.4, 25C
Procedure: Regarding the produced Fc region variant-containing antibodies, binding assays between soluble mouse FcγRII and antigen-antibody complexes were performed using BIACORE® T200 (GE Healthcare). Soluble mouse FcγRII was produced in the form of a His-tagged molecule by a method known to those skilled in the art. An appropriate amount of an anti-His antibody was fixed onto Sensor chip CM5 (GE Healthcare) by the amine coupling method using a His capture kit (GE Healthcare) to capture mouse FcγRII. Next, an antibody-antigen complex and a running buffer (as a reference solution) were injected, and interaction was allowed to take place with the mouse FcγRII captured onto the sensor chip. 20 mM N-(2-Acetamido)-2-aminoethanesulfonic acid, 150 mM NaCl, 1.2 mM CaCl₂, and 0.05% (w/v) TWEEN, 20 at pH7.4 was used as the running buffer, and the respective buffer was also used to dilute the soluble mouse FcγRII. To regenerate the sensor chip, 10 mM glycine-HCl at pH1.5 was used. All measurements were carried out at 25° C. […] To calculate the parameters, the BIACORE® T100 Evaluation Software (GE Healthcare) was used.

[2] = biological target: T2, human FcγRIIb constitutively expressed …; assay: cell-based or functional assay

Row | Binder | biacore IC binding [1] | celluar uptake [2]
1 | M103205H795-P1540m/M103202L889-SK1 (antibody, human IgG1, kappa) heavy: not shown light: DIVMTQSPATLSLSPGERATLSCTSSQSVYHANWLSWFQQKPGQPPKLLIYWASTLAYGVPSRFSGSGSGTDFTLTISSLQPEDAATYYCAGGYGGGRYAFGQGTKVEIKRTVAAPSVFIFPPSDEQLKSGTASVVCLLNNFYPREAKVQWKVDNALQSGNSQESVTEQDSKDSTYSLSSTLTLSKADYEKHKVYACEVTHQGLSSPVTKSFNRGEC | 1.73 relative to SG1 (=1.00) | 7.64 relative to SG1 (=1.00)
2 | M103205H795-P1546m/M103202L889-SK1 (antibody, human IgG1, kappa) heavy: QVTLKESGPVLVKPTETLTLTCTVSGIDLSHDDISWVRQAPGKGLEWVGIISYAGSTYYASWAKGRLTISKDTSKNQVVLTMTNMDPVDTATYYCARGVPAYSHGGDLWGQGTLVTVSSASTKGPSVFPLAPSSKSTSGGTAALGCLVKDYFPEPVTVSWNSGALTSGVHTFPAVLQSSGLYSLSSVVTVPSSSLGTQTYICNVNHKPSNTKVDKKVEPKSCDKTHTCPPCPAPELLGGPSVFLFPPKPKDTLMISRTPEVTCVVVDVSHEDPEVKFNWYVDGVEVHNAKTKPREEQYNSTYRVVSVLTVLHRDWLNGKEYKCKVSNKALPAPIEKTISKAKGQPREPQVYTLPPSREEMTKNQVSLTCLVKGFYPSDIAVEWESNGQPENNYKTTPPVLDSDRSFFLYSKLTVKKSRWQQGNVFSCSVMHEALHNHYTQKSLSLSP light: DIVMTQSPATLSLSPGERATLSCTSSQSVYHANWLSWFQQKPGQPPKLLIYWASTLAYGVPSRFSGSGSGTDFTLTISSLQPEDAATYYCAGGYGGGRYAFGQGTKVEIKRTVAAPSVFIFPPSDEQLKSGTASVVCLLNNFYPREAKVQWKVDNALQSGNSQESVTEQDSKDSTYSLSSTLTLSKADYEKHKVYACEVTHQGLSSPVTKSFNRGEC | 1.41 relative to SG1 (=1.00) | 5.1 relative to SG1 (=1.00)
3 | M103205H795-P1544m/M103202L889-SK1 (antibody, human IgG1, kappa) heavy: QVTLKESGPVLVKPTETLTLTCTVSGIDLSHDDISWVRQAPGKGLEWVGIISYAGSTYYASWAKGRLTISKDTSKNQVVLTMTNMDPVDTATYYCARGVPAYSHGGDLWGQGTLVTVSSASTKGPSVFPLAPSSKSTSGGTAALGCLVKDYFPEPVTVSWNSGALTSGVHTFPAVLQSSGLYSLSSVVTVPSSSLGTQTYICNVNHKPSNTKVDKKVEPKSCDKTHTCPPCPAPELLGGPSVFLFPPKPKDTLMISRTPEVTCVVVDVSHEDPEVKFNWYVDGVEVHNAKTKPREEQYNSTYRVVSVLTVLHRDWLNGKEYKCKVSNKALPAPIEKTISKAKGQPREPQVYTLPPSREEMTKNQVSLTCLVKGFYPSDIAVEWESNGQPENNYKTTPPVLDSRGSFFLYSKLTVKKSRWQQGNVFSCSVMHEALHNHYTQKSLSLSP light: DIVMTQSPATLSLSPGERATLSCTSSQSVYHANWLSWFQQKPGQPPKLLIYWASTLAYGVPSRFSGSGSGTDFTLTISSLQPEDAATYYCAGGYGGGRYAFGQGTKVEIKRTVAAPSVFIFPPSDEQLKSGTASVVCLLNNFYPREAKVQWKVDNALQSGNSQESVTEQDSKDSTYSLSSTLTLSKADYEKHKVYACEVTHQGLSSPVTKSFNRGEC | 2.04 relative to SG1 (=1.00) | 7.66 relative to SG1 (=1.00)
4 | M103205H795-P1547m/M103202L889-SK1 (antibody, human IgG1, kappa) heavy: QVTLKESGPVLVKPTETLTLTCTVSGIDLSHDDISWVRQAPGKGLEWVGIISYAGSTYYASWAKGRLTISKDTSKNQVVLTMTNMDPVDTATYYCARGVPAYSHGGDLWGQGTLVTVSSASTKGPSVFPLAPSSKSTSGGTAALGCLVKDYFPEPVTVSWNSGALTSGVHTFPAVLQSSGLYSLSSVVTVPSSSLGTQTYICNVNHKPSNTKVDKKVEPKSCDKTHTCPPCPAPELLGGPSVFLFPPKPKDTLMISRTPEVTCVVVDVSHEDPEVKFNWYVDGVEVHNAKTKPREEQYNSTYRVVSVLTVLHRDWLNGKEYKCKVSNKALPAPIEKTISKAKGQPREPQVYTLPPSREEMTKNQVSLTCLVKGFYPSDIAVEWESNGQPENNYKTTPPVLDSDKSFFLYSKLTVKKSRWQQGNVFSCSVMHEALHNHYTQKSLSLSP light: DIVMTQSPATLSLSPGERATLSCTSSQSVYHANWLSWFQQKPGQPPKLLIYWASTLAYGVPSRFSGSGSGTDFTLTISSLQPEDAATYYCAGGYGGGRYAFGQGTKVEIKRTVAAPSVFIFPPSDEQLKSGTASVVCLLNNFYPREAKVQWKVDNALQSGNSQESVTEQDSKDSTYSLSSTLTLSKADYEKHKVYACEVTHQGLSSPVTKSFNRGEC | 1.33 relative to SG1 (=1.00) | 4.85 relative to SG1 (=1.00)
5 | M103205H795-P1542m/M103202L889-SK1 (antibody, human IgG1, kappa) heavy: not shown light: DIVMTQSPATLSLSPGERATLSCTSSQSVYHANWLSWFQQKPGQPPKLLIYWASTLAYGVPSRFSGSGSGTDFTLTISSLQPEDAATYYCAGGYGGGRYAFGQGTKVEIKRTVAAPSVFIFPPSDEQLKSGTASVVCLLNNFYPREAKVQWKVDNALQSGNSQESVTEQDSKDSTYSLSSTLTLSKADYEKHKVYACEVTHQGLSSPVTKSFNRGEC | 1.21 relative to SG1 (=1.00) | 3.32 relative to SG1 (=1.00)
6 | M103205H795-P1543m/M103202L889-SK1 (antibody, human IgG1, kappa) heavy: not shown light: DIVMTQSPATLSLSPGERATLSCTSSQSVYHANWLSWFQQKPGQPPKLLIYWASTLAYGVPSRFSGSGSGTDFTLTISSLQPEDAATYYCAGGYGGGRYAFGQGTKVEIKRTVAAPSVFIFPPSDEQLKSGTASVVCLLNNFYPREAKVQWKVDNALQSGNSQESVTEQDSKDSTYSLSSTLTLSKADYEKHKVYACEVTHQGLSSPVTKSFNRGEC | 1.19 relative to SG1 (=1.00) | 3.7 relative to SG1 (=1.00)
7 | M103205H795-P1548m/M103202L889-SK1 (antibody, human IgG1, kappa) heavy: QVTLKESGPVLVKPTETLTLTCTVSGIDLSHDDISWVRQAPGKGLEWVGIISYAGSTYYASWAKGRLTISKDTSKNQVVLTMTNMDPVDTATYYCARGVPAYSHGGDLWGQGTLVTVSSASTKGPSVFPLAPSSKSTSGGTAALGCLVKDYFPEPVTVSWNSGALTSGVHTFPAVLQSSGLYSLSSVVTVPSSSLGTQTYICNVNHKPSNTKVDKKVEPKSCDKTHTCPPCPAPELLGGPSVFLFPPKPKDTLMISRTPEVTCVVVDVSHEDPEVKFNWYVDGVEVHNAKTKPREEQYNSTYRVVSVLTVLHRDWLNGKEYKCKVSNKALPAPIEKTISKAKGQPREPQVYTLPPSREEMTKNQVSLTCLVKGFYPSDIAVEWESNRQPENNYKTTPPVLDSRGSFFLYSKLTVDKSRWQQGNVFSCSVMHEALHNHYTQKSLSLSP light: DIVMTQSPATLSLSPGERATLSCTSSQSVYHANWLSWFQQKPGQPPKLLIYWASTLAYGVPSRFSGSGSGTDFTLTISSLQPEDAATYYCAGGYGGGRYAFGQGTKVEIKRTVAAPSVFIFPPSDEQLKSGTASVVCLLNNFYPREAKVQWKVDNALQSGNSQESVTEQDSKDSTYSLSSTLTLSKADYEKHKVYACEVTHQGLSSPVTKSFNRGEC | 1.37 relative to SG1 (=1.00) | 2.3 relative to SG1 (=1.00)
8 | M103205H795-P1545m/M103202L889-SK1 (antibody, human IgG1, kappa) heavy: QVTLKESGPVLVKPTETLTLTCTVSGIDLSHDDISWVRQAPGKGLEWVGIISYAGSTYYASWAKGRLTISKDTSKNQVVLTMTNMDPVDTATYYCARGVPAYSHGGDLWGQGTLVTVSSASTKGPSVFPLAPSSKSTSGGTAALGCLVKDYFPEPVTVSWNSGALTSGVHTFPAVLQSSGLYSLSSVVTVPSSSLGTQTYICNVNHKPSNTKVDKKVEPKSCDKTHTCPPCPAPELLGGPSVFLFPPKPKDTLMISRTPEVTCVVVDVSHEDPEVKFNWYVDGVEVHNAKTKPREEQYNSTYRVVSVLTVLHRDWLNGKEYKCKVSNKALPAPIEKTISKAKGQPREPQVYTLPPSREEMTKNQVSLTCLVKGFYPSDIAVEWESNGQPENNYKTTPPVLDSKGSFFLYSKLTVKKSRWQQGNVFSCSVMHEALHNHYTQKSLSLSP light: DIVMTQSPATLSLSPGERATLSCTSSQSVYHANWLSWFQQKPGQPPKLLIYWASTLAYGVPSRFSGSGSGTDFTLTISSLQPEDAATYYCAGGYGGGRYAFGQGTKVEIKRTVAAPSVFIFPPSDEQLKSGTASVVCLLNNFYPREAKVQWKVDNALQSGNSQESVTEQDSKDSTYSLSSTLTLSKADYEKHKVYACEVTHQGLSSPVTKSFNRGEC | 1.8 relative to SG1 (=1.00) | 7.73 relative to SG1 (=1.00)
9 | M103205H795-P1541m/M103202L889-SK1 (antibody, human IgG1, kappa) heavy: not shown light: DIVMTQSPATLSLSPGERATLSCTSSQSVYHANWLSWFQQKPGQPPKLLIYWASTLAYGVPSRFSGSGSGTDFTLTISSLQPEDAATYYCAGGYGGGRYAFGQGTKVEIKRTVAAPSVFIFPPSDEQLKSGTASVVCLLNNFYPREAKVQWKVDNALQSGNSQESVTEQDSKDSTYSLSSTLTLSKADYEKHKVYACEVTHQGLSSPVTKSFNRGEC | 1.57 relative to SG1 (=1.00) | 7.17 relative to SG1 (=1.00)
